In the supplement of paper PMC9876800:

Test system: peptide library, one residue held at a place counted from the S/T acceptor
Assay: relative phosphorylation of the sub-library (ratio to the mean residue at this position); human; higher = residue favoured
Method in brief: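 Purified recombinant kinases (human or orthologue constructs) were incubated in 384-well plates with biotinylated degenerate peptide sub-libraries, each fixing one residue at one position around a central Ser/Thr. Peptides were at 50 μM, with 50 μM ATP spiked with γ-32P-ATP, for 90 min under kinase-specific conditions. Spots on streptavidin membranes were phosphorimaged and quantified by densitometry. Relative sub-library phosphorylation is a ratio to the mean residue at that position.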

Chain of PRPF4B, construct: aa519-end (Q13523 519-1007, looked up): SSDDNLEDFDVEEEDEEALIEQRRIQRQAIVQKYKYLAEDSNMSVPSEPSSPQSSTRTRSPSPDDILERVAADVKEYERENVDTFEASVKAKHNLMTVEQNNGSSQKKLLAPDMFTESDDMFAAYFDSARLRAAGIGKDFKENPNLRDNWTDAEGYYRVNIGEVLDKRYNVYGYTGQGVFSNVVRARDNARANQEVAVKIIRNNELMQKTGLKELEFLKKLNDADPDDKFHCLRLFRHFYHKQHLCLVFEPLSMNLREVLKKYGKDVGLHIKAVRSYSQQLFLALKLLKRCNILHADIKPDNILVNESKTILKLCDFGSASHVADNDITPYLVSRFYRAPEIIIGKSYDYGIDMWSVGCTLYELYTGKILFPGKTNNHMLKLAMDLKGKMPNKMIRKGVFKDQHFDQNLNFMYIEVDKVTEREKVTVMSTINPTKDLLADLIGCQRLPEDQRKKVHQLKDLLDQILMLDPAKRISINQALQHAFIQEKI
Chain of RIPK1, construct: aa1-327 (Q13546 1-327, looked up): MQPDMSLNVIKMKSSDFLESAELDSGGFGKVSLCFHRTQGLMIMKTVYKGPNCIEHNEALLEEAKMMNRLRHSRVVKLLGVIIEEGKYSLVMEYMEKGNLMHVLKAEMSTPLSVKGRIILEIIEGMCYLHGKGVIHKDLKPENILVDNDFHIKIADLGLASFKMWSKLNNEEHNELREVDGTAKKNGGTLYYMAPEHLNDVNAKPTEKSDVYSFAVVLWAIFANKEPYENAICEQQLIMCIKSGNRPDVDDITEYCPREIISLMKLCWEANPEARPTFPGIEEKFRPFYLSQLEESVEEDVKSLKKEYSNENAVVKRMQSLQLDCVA

PRPF4B, construct: aa519-end (from UniProt Q13523)
relative phosphorylation
Conditions	at +1	at +2	at +3	at +4	at -1	at -2	at -3	at -4	at -5
A fixed	0.571	0.959	0.8	0.921	1.05	1.22	1.02	1.06	0.939
D fixed	0.544	0.683	0.635	0.83	0.907	0.693	0.586	1.81	1.13
E fixed	0.929	0.685	0.59	0.808	1.25	0.553	0.512	1.16	0.966
F fixed	0.507	1.27	0.722	0.958	0.81	1.27	0.409	0.856	0.905
G fixed	0.774	0.741	1.05	1.4	0.744	1.3	8.94	1.77	0.991
H fixed	0.596	1.07	1.01	1.02	0.844	0.907	0.507	1.01	0.832
I fixed	0.68	1.42	0.911	0.934	0.863	1.21	0.404	0.681	0.831
K fixed	0.56	0.713	1.08	1.03	0.894	0.582	0.382	0.747	1.04
L fixed	0.548	0.954	0.91	0.9	1.03	0.866	0.41	0.866	0.83
M fixed	0.689	1.05	0.747	1.04	1.27	0.815	0.43	0.75	0.842
N fixed	0.665	0.968	1.05	0.83	0.826	0.745	0.538	1.08	0.931
P fixed	5.85	0.725	2.53	1.02	0.785	1.47	0.587	1.13	1.18
Q fixed	0.696	0.791	0.923	0.951	1.25	0.608	0.439	0.858	0.998
R fixed	0.686	0.868	1.42	1.15	1.58	0.625	0.502	0.73	1.28
V fixed	1.56	1.44	0.953	0.882	0.922	1	0.384	0.625	0.987
W fixed	0.532	1.52	0.846	1.31	1.01	2.09	0.512	1.04	1
Y fixed	0.612	1.16	0.825	1	0.969	1.04	0.435	0.812	1.31
pThr fixed	0.638	0.803	0.794	0.583	0.68	0.828	0.697	1.72	0.911
pTyr fixed	0.586	0.825	0.74	0.735	1.15	1.2	0.791	0.882	1.36

RIPK1, construct: aa1-327 (from UniProt Q13546)
relative phosphorylation
Conditions	at +1	at +2	at +3	at +4	at -1	at -2	at -3	at -4	at -5
A fixed	0.709	0.619	0.572	0.819	0.574	1.01	0.92	1.03	0.84
D fixed	0.248	0.612	0.489	0.846	0.592	0.374	0.536	0.614	0.642
E fixed	0.331	0.927	0.398	0.81	0.313	0.37	0.551	0.685	0.68
F fixed	1.91	1.28	2	0.939	0.793	0.734	0.896	1.04	1.09
G fixed	0.79	0.817	0.707	1.28	0.747	1.21	1.29	1.27	1.18
H fixed	0.809	1.29	1.04	1.07	1.52	1.18	0.977	0.908	1.12
I fixed	1.1	1.28	1.19	1.27	1.12	1.07	0.944	1.04	1.28
K fixed	1.33	0.639	0.517	0.762	1.83	1.3	1.27	1.06	1.1
L fixed	0.829	1.21	1.09	0.947	1.01	1.19	0.986	0.935	1.14
M fixed	1.38	1.34	1.34	1.11	1.18	1.04	1.08	1.13	1.2
N fixed	0.583	0.801	0.726	0.839	1.3	0.975	0.829	0.76	0.797
P fixed	0.198	0.568	0.355	1.14	0.453	1.11	0.927	1.02	0.833
Q fixed	1.19	0.891	0.703	0.787	0.85	0.796	0.743	0.689	0.667
R fixed	2.48	1.02	1.13	0.945	1.97	1.94	2.35	1.4	1.32
V fixed	0.96	1.03	0.917	1.04	1.03	1.26	0.845	1.22	1.16
W fixed	1.01	1.03	1.88	1.22	0.675	0.763	1.02	1.29	0.987
Y fixed	1.15	1.66	1.94	1.18	1.04	0.682	0.84	0.912	0.972
pThr fixed	0.704	0.999	0.696	1.06	0.761	1.34	1.15	1.08	0.87
pTyr fixed	0.391	0.788	0.54	0.968	0.683	0.719	1.19	0.795	0.72
